Measured values from paper PMC9588774 (Cell Death & Disease, 2022).
Each block holds one binder with its values, some of them ahead of it.

Experiments:
[1] = molecular target: T1, CD95L (FasL, Peprotech) (UniProt P48023 130-281); assay: SPR
T1 chain: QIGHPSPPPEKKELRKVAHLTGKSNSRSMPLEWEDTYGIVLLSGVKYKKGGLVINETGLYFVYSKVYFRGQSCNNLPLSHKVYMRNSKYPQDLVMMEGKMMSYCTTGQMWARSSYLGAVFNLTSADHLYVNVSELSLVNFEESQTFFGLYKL

[2] = molecular target: soluble full-length extracellular domain of CD95 (sCD95); assay: SEC; supernatants of sCD95-secreting HEK/293T cells on Superdex 200 Prep Grade (XK 16/70) in PBS, 1 mL/min, 1 mL fractions; CD95 in each fraction dosed by ELISA; native molecular markers
[3] = molecular target: CD95L (FasL, Peprotech) (UniProt P48023); assay: SPR; Biacore T200, 25 °C; CM5 chip coated with 140 RU of FasL (Peprotech); sCD95 or sCD95-Δ58 injected in triplicate at 25 µl/min in 10 mM Na2HPO4, 150 mM NaCl, 3 mM EDTA, 0.05% Tween-20, pH 7.4; Langmuir 1:1 fit, KD = kd/ka
[4] = molecular target: the molecule itself; assay: SEC; supernatants of sCD95-secreting HEK/293T cells on Superdex 200 Prep Grade (XK 16/70) in PBS, 1 mL/min, 1 mL fractions; CD95 in each fraction dosed by ELISA; native molecular markers

koff [1]: 0.0011 s⁻¹
percent of homotrimer [2]: 27%
percent of monomer [2]: 20%
percent of the protein in the dimer fractions [2]: 44%
stoichiometry N [2]: 2
Kd [3]: 2 nM
B1: soluble full-length extracellular domain of CD95 (sCD95) (domain or fragment)
chain: RLSSKSVNAQVTDINSKGLELRKTVTTVETQNLEGLHHDGQFCHKPCPPGERKARDCTVNGDEPDCVPCQEGKEYTDKAHFSSKCRRCRLCDEGHGLEVEINCTRTQNTKCRCKPNFFCNSTVCEHCDPCTKCEHGIIKECTLTSNTKCKEEGSRSNL
modifications: N-glycosylated

koff [1]: 0.0011 s⁻¹
Kd [3]: 2.5 nM
B2: soluble Δ58-truncated extracellular domain of CD95 (sCD95-Δ58) (domain or fragment)
chain: CHKPCPPGERKARDCTVNGDEPDCVPCQEGKEYTDKAHFSSKCRRCRLCDEGHGLEVEINCTRTQNTKCRCKPNFFCNSTVCEHCDPCTKCEHGIIKECTLTSNTKCKEEGSRSNL

More lines, now with the values behind:

B3: soluble Δ36-truncated extracellular domain of CD95 (sCD95-Δ36) (domain or fragment, UniProt P25445 37-173, looked up)
chain: LRKTVTTVETQNLEGLHHDGQFCHKPCPPGERKARDCTVNGDEPDCVPCQEGKEYTDKAHFSSKCRRCRLCDEGHGLEVEINCTRTQNTKCRCKPNFFCNSTVCEHCDPCTKCEHGIIKECTLTSNTKCKEEGSRSN
notes: CD95 (Fas), a.a; 37-173 of the 335-residue precursor; pcDNA3.1(+); also called Δ36-CD95; MMP7-cleaved form; source: HEK/293T, transfected (calcium/phosphate), secreted into serum-deprived Opti-MEM; supernatant ultracentrifuged
stoichiometry N [4]: 2

B4: soluble extracellular domain of CD95 with K33G (sCD95-K33G) (domain or fragment, UniProt P25445 17-173, looked up)
chain: RLSSKSVNAQVTDINSGGLELRKTVTTVETQNLEGLHHDGQFCHKPCPPGERKARDCTVNGDEPDCVPCQEGKEYTDKAHFSSKCRRCRLCDEGHGLEVEINCTRTQNTKCRCKPNFFCNSTVCEHCDPCTKCEHGIIKECTLTSNTKCKEEGSRSN
notes: CD95 (Fas), a.a; 17-173 of the 335-residue precursor, AAG codon (K) replaced by GGG (G); pcDNA3.1(+); also called soluble K33G CD95 mutant; source: HEK/293T, transfected (calcium/phosphate), secreted into serum-deprived Opti-MEM; supernatant ultracentrifuged
stoichiometry N [4]: 3
